Experiments:
[1] = target: T1, Edc3 (two-hybrid fusion to the DNA binding domain) (S. cerevisiae, UniProt P39998 1-551); test: two-hybrid; yeast strain BSY2475, isogenic to MAV203 but lacking Edc3 (Δedc3); β-galactosidase activity by Beta-Glo; Pat1 fused to Gal4AD; conditions: partners not purified
T1 construct: Edc3, S. cerevisiae; The bridge between Pat1 and Rps28 in the wild-type host strain is the strain's endogenous Edc3, the same protein without the fusion; source: yeast two-hybrid fusion
T1 sequence (looked up): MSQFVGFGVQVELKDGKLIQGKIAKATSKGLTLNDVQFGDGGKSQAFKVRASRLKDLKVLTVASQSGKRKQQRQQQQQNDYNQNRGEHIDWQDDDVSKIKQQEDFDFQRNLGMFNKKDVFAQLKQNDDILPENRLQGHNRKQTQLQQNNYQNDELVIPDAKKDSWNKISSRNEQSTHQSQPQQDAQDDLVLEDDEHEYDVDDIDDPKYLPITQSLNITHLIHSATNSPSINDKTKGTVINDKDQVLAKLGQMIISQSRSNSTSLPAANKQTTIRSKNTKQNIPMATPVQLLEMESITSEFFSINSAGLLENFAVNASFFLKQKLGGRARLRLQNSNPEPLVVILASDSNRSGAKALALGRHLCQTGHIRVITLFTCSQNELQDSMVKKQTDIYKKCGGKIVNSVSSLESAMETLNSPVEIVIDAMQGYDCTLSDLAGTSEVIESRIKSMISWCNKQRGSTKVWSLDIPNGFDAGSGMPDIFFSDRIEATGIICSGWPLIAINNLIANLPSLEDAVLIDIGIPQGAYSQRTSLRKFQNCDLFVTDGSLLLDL

Scd6 (two-hybrid fusion) = target: T2, Scd6 (two-hybrid fusion) (S. cerevisiae, UniProt P45978 1-349); test: as above; conditions: partners not purified
T2 construct: Scd6, S. cerevisiae; source: yeast two-hybrid fusion
T2 sequence (looked up): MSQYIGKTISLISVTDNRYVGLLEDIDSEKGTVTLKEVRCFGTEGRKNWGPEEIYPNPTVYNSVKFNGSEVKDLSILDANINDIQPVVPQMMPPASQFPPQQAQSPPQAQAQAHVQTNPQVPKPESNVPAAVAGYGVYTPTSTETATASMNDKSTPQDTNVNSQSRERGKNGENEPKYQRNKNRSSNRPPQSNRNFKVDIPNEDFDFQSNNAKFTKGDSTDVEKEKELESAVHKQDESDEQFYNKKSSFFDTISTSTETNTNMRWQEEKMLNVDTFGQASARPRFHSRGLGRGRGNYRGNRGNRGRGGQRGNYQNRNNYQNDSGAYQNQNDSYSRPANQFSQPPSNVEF

B1: full-length ScPat1 (two-hybrid fusion to Gal4AD) (natural protein, S. cerevisiae, UniProt P25644 1-796, looked up)
chain: MSFFGLENSGNARDGPLDFEESYKGYGEHELEENDYLNDETFGDNVQVGTDFDFGNPHSSGSSGNAIGGNGVGATARSYVAATAEGISGPRTDGTAAAGPLDLKPMESLWSTAPPPAMAPSPQSTMAPAPAPQQMAPLQPILSMQDLERQQRQMQQQFMNFHAMGHPQGLPQGPPQQQFPMQPASGQPGPSQFAPPPPPPGVNVNMNQMPMGPVQVPVQASPSPIGMSNTPSPGPVVGATKMPLQSGRRSKRDLSPEEQRRLQIRHAKVEKILKYSGLMTPRDKDFITRYQLSQIVTEDPYNEDFYFQVYKIIQRGGITSESNKGLIARAYLEHSGHRLGGRYKRTDIALQRMQSQVEKAVTVAKERPSKLKDQQAAAGNSSQDNKQANTVLGKISSTLNSKNPRRQLQIPRQQPSDPDALKDVTDSLTNVDLASSGSSSTGSSAAAVASKQRRRSSYAFNNGNGATNLNKSGGKKFILELIETVYEEILDLEANLRNGQQTDSTAMWEALHIDDSSYDVNPFISMLSFDKGIKIMPRIFNFLDKQQKLKILQKIFNELSHLQIIILSSYKTTPKPTLTQLKKVDLFQMIILKIIVSFLSNNSNFIEIMGLLLQLIRNNNVSFLTTSKIGLNLITILISRAALIKQDSSRSNILSSPEISTWNEIYDKLFTSLESKIQLIFPPREYNDHIMRLQNDKFMDEAYIWQFLASLALSGKLNHQRIIIDEVRDEIFATINEAETLQKKEKELSVLPQRSQELDTELKSIIYNKEKLYQDLNLFLNVMGLVYRDGEISELK
notes: Pat1, S. cerevisiae, full-length; pBS2374 is named only as the template for the Gal4AD-Pat1ΔC68 plasmid pBS4907; also called wild type ScPat1; full-length Pat1 protein; source: yeast two-hybrid fusion
For B1, the “fold two-hybrid signal, Δedc3 strain over wild type strain” value [1] was > 60 fold and the “fold two-hybrid signal, Δedc3 strain over wild type strain” value (Scd6 (two-hybrid fusion)) was 3 fold.
